# Reference: patent US9872887B2, “Extracellular matrix-binding synthetic peptidoglycans” (Purdue Research Foundation, priority 2013, dated 2018)
# Experiment: Rheological measurements on bovine vitreous
# Conditions: trypsin treated vs no treatment and PBS buffer; FIG. 3A
# Description: The synthetic peptidoglycans according to the present disclosure can be tested as follows. Viscoelastic properties can be measured using a rheometer, for example the TAInstruments ARG2 rheometer. A cone and plate geometry or a parallel plate geometry can be used. Vitreous humor (e.g., bovine) can be placed within the geometry. The temperature can be controlled and frequency sweeps can be performed from ranges of about 0.1 Hz to about 100 Hz (e.g., 1 Hz) and storage, loss, and complex modulus can be measured at an oscillatory shear stress between about 0.1 Pa and about 10 Pa (e.g., 10 Pa). Temperature: 37° C.
substance,measurement,value
trypsin,viscosity of bovine vitreous,lower viscosity
